For the assay, the target named is CFF-Myc (UniProt P01732). The experiment in a line: co-IP.

Results on 1 substance are retold here after doi:10.1101/059451.

With “HA-TNPO1 (from UniProt Q92973 1-898) (natural protein)”, the fold more TNPO1 co-IPed in the presence of Rab8-T22N than -Q67L or -wt is 3 fold.
